Patent US20150210761A1 (SAMSUNG ELECTRONICS, published 2015)

T1: FLAG-tagged hAng-2 (human, UniProt O15123 19-496)
T1 sequence: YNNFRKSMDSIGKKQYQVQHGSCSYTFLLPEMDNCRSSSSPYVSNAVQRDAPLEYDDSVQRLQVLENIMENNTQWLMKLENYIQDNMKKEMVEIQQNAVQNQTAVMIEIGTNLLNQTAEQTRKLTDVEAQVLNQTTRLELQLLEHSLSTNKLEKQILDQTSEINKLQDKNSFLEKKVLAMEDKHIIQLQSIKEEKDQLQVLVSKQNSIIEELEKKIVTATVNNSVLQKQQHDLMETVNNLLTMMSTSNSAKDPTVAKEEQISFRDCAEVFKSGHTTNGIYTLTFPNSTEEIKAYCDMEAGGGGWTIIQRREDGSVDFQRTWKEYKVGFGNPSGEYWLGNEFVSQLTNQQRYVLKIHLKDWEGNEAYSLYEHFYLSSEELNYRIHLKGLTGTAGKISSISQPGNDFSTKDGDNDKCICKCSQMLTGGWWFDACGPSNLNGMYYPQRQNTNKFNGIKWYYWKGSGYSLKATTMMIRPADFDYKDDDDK

T2: recombinant hAng-2 (C-His, R&D Systems) (human, UniProt O15123 19-496)
T2 construct: Bought protein; Captured on an anti-His antibody chip for SPR; also called human Ang2; not shown: C-terminal His tag
T2 sequence: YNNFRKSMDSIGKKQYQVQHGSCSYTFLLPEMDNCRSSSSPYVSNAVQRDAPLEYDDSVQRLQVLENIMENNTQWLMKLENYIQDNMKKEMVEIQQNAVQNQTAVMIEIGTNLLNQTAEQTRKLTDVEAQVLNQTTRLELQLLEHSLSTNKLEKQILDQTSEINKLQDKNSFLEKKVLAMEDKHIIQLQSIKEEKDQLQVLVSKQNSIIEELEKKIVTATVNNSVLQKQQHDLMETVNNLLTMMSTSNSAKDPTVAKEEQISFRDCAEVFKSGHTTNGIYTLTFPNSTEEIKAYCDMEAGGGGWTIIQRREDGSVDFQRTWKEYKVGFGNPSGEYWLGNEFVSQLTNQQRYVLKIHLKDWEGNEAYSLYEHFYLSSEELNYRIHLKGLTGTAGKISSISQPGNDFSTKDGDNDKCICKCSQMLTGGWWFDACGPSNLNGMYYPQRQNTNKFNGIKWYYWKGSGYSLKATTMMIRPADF

T3: hAng1 (human, UniProt Q15389 20-498, limits assumed)
T3 construct: Tested by the same SPR set-up as hAng2; the construct is not described; also called human Ang1
T3 sequence (looked up): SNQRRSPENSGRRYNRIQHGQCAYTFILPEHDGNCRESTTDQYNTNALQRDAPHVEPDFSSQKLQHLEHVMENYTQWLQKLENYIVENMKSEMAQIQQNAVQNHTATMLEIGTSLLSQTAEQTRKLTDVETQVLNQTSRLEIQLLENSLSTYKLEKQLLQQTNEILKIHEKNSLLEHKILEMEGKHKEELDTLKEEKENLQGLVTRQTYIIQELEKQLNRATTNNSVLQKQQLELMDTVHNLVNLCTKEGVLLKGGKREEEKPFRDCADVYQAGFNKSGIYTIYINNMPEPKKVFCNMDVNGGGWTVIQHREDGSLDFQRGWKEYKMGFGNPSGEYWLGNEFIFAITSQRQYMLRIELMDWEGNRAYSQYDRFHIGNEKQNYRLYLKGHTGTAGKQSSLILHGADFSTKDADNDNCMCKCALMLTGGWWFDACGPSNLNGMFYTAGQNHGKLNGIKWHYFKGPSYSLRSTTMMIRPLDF

T4: human Ang2 protein (R&D systems) (human, UniProt O15123 19-496)
T4 sequence: T2 sequence

B1: SAIT-ANG2-AB-m3E2 (antibody, V domains shown)
VH: EVQLQQSGAELVKPGASVKLSCTASGFNIKDPYIHWVKQRPEQGLEWIGRIDPANGNTKYDPKFQGKATITADTSSNTAYLQLSSLTSEDTAVYYCVRRWDGGGFDYWGQGTSVTVSS
VL: DIQMTQTTSSLSASLGDRVTISCRASQDISNYLNWYQQKPDGTVKLLIYYTSRLHSGVPSRFSGSGSGTDYSLTITNLEQEDIATYFCQQGNTLPWTFGGGTKLEIK
notes: also called hybridoma KCLRF-BP-00305
B2: SAIT-ANG2-AB-m8D3 (antibody, V domains shown)
VH: EVQLQQSGPELVKPGDSVKMSCKASGYTFTDYYMKWVRQSHGKSLQWVGEINPKNGDTFYNQIFKGKATLTVDKSSSTAYMQLTSLTSEDSAVYYCTRENDYDVGFFDYWGQGTSVTVSS
VL: TIVMTQTPKFLLVSAGDRITITCKASQSVSNDVAWYQQKPGQSPKLLIYYASNRYPGVPDRFTGSGYGTDFTFTISTVQAEDLAVYFCQQDYTSPWTFGGGTELEIK
notes: also called hybridoma KCLRF-BP-00308
B3: SAIT-ANG2-AB-m1A10 (antibody, V domains shown)
VH: QVQLQQSGAELMKPGASVKISCKATDYTFSSYWLEWLIQRPGHGLEWIGEILPGSGSTNYNEKFRGKATFTEDTSSNTAYMQLSSLTSEDSAVYYCARGNHNSYYYAMDYWGQGTSVTVSS
VL: DIVLTQSPASLAVSLGQRATISCRASESVDSYGNSFMHWYQQKPGQPPKLLIYRASNLDSGIPARFSGSGSRTDFTLTINPVEADDVATYYCQQSNEDPLTFGAGTKLELK
notes: also called hybridoma KCLRF-BP-00306

The binders below were run against T1, FLAG-tagged hAng-2 (assay: Ang2:Tie2 competition ELISA; hTie2-Fc coated, 400 ng/ml FLAG-tagged hAng-2, anti-FLAG-HRP detection).
Description: More specifically, MaxiSorp™ flat-bottom plate (Nunc) of 96-well was coated with hTie2-Fc (R&D Systems) which is a protein bound with 4 μg/ml of Fc of human IgG1. After coating, the plate was washed five times with 0.05% (v/v) Tween-20-containing PBS (phosphate buffer saline) and then blocked with 1% (v/v) BSA (bovine serum albumin; Sigma)-containing PBS at a room temperature for 2 hour.
For Ang2:Tie2 competition ELISA, each anti-Ang2 antibody obtained in Example 2 was placed at various concentrations of 400 nM-0.001 nM into each well coated with the hTie-2/Fc fusion protein along with 1% (v/v) BSA and 400 ng/ml of a FLAG-tagged hAng-2 and then, the plate was allowed to react at a room temperature for 2 hours and washed five times with PBST. After that, a HRP-conjugated anti-FLAG antibody (Sigma) diluted in 1% (v/v) BSA-containing PBS at a ratio of 1:5,000 (v/v) was added in an amount of […] to each well to react at a room temperature for 1 hour and then, the plate was washed five times with PBST. Lastly, 100 μl of TMB substrate (Cell Signaling) was added to each well of the plate to induce color development for 3 min. and then, the reaction was ceased by the addition of 100 μl of Stop solution (Cell Signaling) and OD450 values were measured on a plate reader (Molecular Devices).

Row | Binder | IC50
1 | B1 | 0.55 nM
2 | B2 | 0.99 nM
3 | B3 | 1.34 nM

Each binder was assayed against T2, recombinant hAng-2 (C-His, R&D Systems) (assay: SPR, BIAcore T100; hAng-2 C-His captured on anti-His chip, antibody flowed).
Description: To more exactly measure the binding affinity of the anti-Ang2 antibodies to antigen Ang2, the binding affinity of the above antibodies to the antigen was measured by an surface plasmon resonance (SPR) method using BIAcore T100 (GE Healthcare). The SPR method uses refractive index change of light which passes a sensor chip according to the state of materials coated onto the sensor chip, and if an antigen or an antibody is flowed onto a chip coated with the antigen or antibody, it causes changes in refractive index due to their binding and Kd values are thus calculated from the measured values.
First, anti-His antibody was immobilized on a CM5 sensor chip (GE healthcare) up to 8,000 RU levels using a pH 5.0 acetate solution and an amine coupling kit (GE Healthcare). 6 μg/ml of a recombinant hAng-2 (C-His, R&D Systems) protein was flowed onto the chip to be captured at 100 to 200 RU levels.

Row | Binder | Kd
4 | B1 | 1.3 nM
5 | B2 | 4 nM
6 | B3 | 4.2 nM

The binders below were run against T3, hAng1 (assay: SPR, BIAcore T100).

Row | Binder | binding result
7 | B1 | no binding (tested: 100 nM (highest antibody concentration))
8 | B2 | no binding (tested: 100 nM (highest antibody concentration))
9 | B3 | no binding (tested: 100 nM (highest antibody concentration))

Each binder was assayed against T4, human Ang2 protein (R&D systems) (assay: cell-based or functional assay).

Row | Binder | Tie2 phosphorylation inhibition (%), antibody at 50 nM, Tie2-overexpressing CHO cells with 20 nM human Ang2
10 | B1 | 76.9%
11 | B2 | 76.7%
12 | B3 | 82%
